According to US12679878B2, “CRF2 receptor agonists and their use in therapy” (SANOFI, priority 2020, dated 2026):
Starred links: 1 amine or outer side, 2 acyl side, 3 side chain; linkers in the order of their positions; H or OH if unused. Non-standard residues stand in square brackets, D forms with d. Groups on a side chain read outwards from the residue. No end group written: not given here. *: point of attachment. C20 diacid = O=C(O)CCCCCCCCCCCCCCCCCCC(=O)*; C18 diacid = O=C(O)CCCCCCCCCCCCCCCCC(=O)*; γGlu = O=C(O)[C@H](CCC(=O)[*:2])N[*:1]; AEEA = NCCOCCOCC(=O)O; Aib = CC(C)(N)C(=O)O

The binders below were run against human corticotropin-releasing factor 2α (CRF2 α receptor) (human), Q13324 (assay: cell-based or functional assay).
Chain of human corticotropin-releasing factor 2α (CRF2 α receptor) (human), Q13324 (Q13324 20-411): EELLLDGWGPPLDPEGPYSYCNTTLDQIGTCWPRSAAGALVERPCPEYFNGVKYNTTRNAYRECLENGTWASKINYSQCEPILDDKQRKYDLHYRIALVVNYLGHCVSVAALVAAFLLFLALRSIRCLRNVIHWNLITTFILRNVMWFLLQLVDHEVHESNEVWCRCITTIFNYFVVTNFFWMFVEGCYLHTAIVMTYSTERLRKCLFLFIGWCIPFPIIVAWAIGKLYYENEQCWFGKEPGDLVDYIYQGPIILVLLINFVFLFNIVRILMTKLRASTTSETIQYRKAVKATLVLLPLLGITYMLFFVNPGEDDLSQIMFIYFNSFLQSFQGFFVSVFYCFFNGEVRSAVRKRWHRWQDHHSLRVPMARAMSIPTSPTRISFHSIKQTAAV

Binder	EC50 [nM], 0% HSA	EC50 [nM], 0.1% HSA
IVLSLD[dV]PIKLK([AEEA-AEEA-γGlu-C20 diacid])QILLKQERQKKQRQQAEKNKQILAQV-NH2 (N-terminus assumed; SMILES CC[C@H](C)[C@H](N)C(=O)N[C@H](C(=O)N[C@@H](CC(C)C)C(=O)N[C@@H](CO)C(=O)N[C@@H](CC(C)C)C(=O)N[C@@H](CC(=O)O)C(=O)N[C@@H](C(=O)N1CCC[C@H]1C(=O)N[C@H](C(=O)N[C@@H](CCCCN)C(=O)N[C@@H](CC(C)C)C(=O)N[C@@H](CCCCNC(=O)COCCOCCNC(=O)COCCOCCNC(=O)CC[C@H](NC(=O)CCCCCCCCCCCCCCCCCCC(=O)O)C(=O)O)C(=O)N[C@@H](CCC(N)=O)C(=O)N[C@H](C(=O)N[C@@H](CC(C)C)C(=O)N[C@@H](CC(C)C)C(=O)N[C@@H](CCCCN)C(=O)N[C@@H](CCC(N)=O)C(=O)N[C@@H](CCC(=O)O)C(=O)N[C@@H](CCCNC(=N)N)C(=O)N[C@@H](CCC(N)=O)C(=O)N[C@@H](CCCCN)C(=O)N[C@@H](CCCCN)C(=O)N[C@@H](CCC(N)=O)C(=O)N[C@@H](CCCNC(=N)N)C(=O)N[C@@H](CCC(N)=O)C(=O)N[C@@H](CCC(N)=O)C(=O)N[C@@H](C)C(=O)N[C@@H](CCC(=O)O)C(=O)N[C@@H](CCCCN)C(=O)N[C@@H](CC(N)=O)C(=O)N[C@@H](CCCCN)C(=O)N[C@@H](CCC(N)=O)C(=O)N[C@H](C(=O)N[C@@H](CC(C)C)C(=O)N[C@@H](C)C(=O)N[C@@H](CCC(N)=O)C(=O)N[C@H](C(N)=O)C(C)C)[C@@H](C)CC)[C@@H](C)CC)[C@@H](C)CC)C(C)C)C(C)C) [SEQ ID NO: 178]	0.04 nM	3.77 nM
IVLSLD[dV]PIKLK([γGlu-C18 diacid])QILLKQERQK[Aib]QREQAEKNKQILAQV-NH2 (N-terminus assumed; SMILES CC[C@H](C)[C@H](N)C(=O)N[C@H](C(=O)N[C@@H](CC(C)C)C(=O)N[C@@H](CO)C(=O)N[C@@H](CC(C)C)C(=O)N[C@@H](CC(=O)O)C(=O)N[C@@H](C(=O)N1CCC[C@H]1C(=O)N[C@H](C(=O)N[C@@H](CCCCN)C(=O)N[C@@H](CC(C)C)C(=O)N[C@@H](CCCCNC(=O)CC[C@H](NC(=O)CCCCCCCCCCCCCCCCC(=O)O)C(=O)O)C(=O)N[C@@H](CCC(N)=O)C(=O)N[C@H](C(=O)N[C@@H](CC(C)C)C(=O)N[C@@H](CC(C)C)C(=O)N[C@@H](CCCCN)C(=O)N[C@@H](CCC(N)=O)C(=O)N[C@@H](CCC(=O)O)C(=O)N[C@@H](CCCNC(=N)N)C(=O)N[C@@H](CCC(N)=O)C(=O)N[C@@H](CCCCN)C(=O)NC(C)(C)C(=O)N[C@@H](CCC(N)=O)C(=O)N[C@@H](CCCNC(=N)N)C(=O)N[C@@H](CCC(=O)O)C(=O)N[C@@H](CCC(N)=O)C(=O)N[C@@H](C)C(=O)N[C@@H](CCC(=O)O)C(=O)N[C@@H](CCCCN)C(=O)N[C@@H](CC(N)=O)C(=O)N[C@@H](CCCCN)C(=O)N[C@@H](CCC(N)=O)C(=O)N[C@H](C(=O)N[C@@H](CC(C)C)C(=O)N[C@@H](C)C(=O)N[C@@H](CCC(N)=O)C(=O)N[C@H](C(N)=O)C(C)C)[C@@H](C)CC)[C@@H](C)CC)[C@@H](C)CC)C(C)C)C(C)C) [SEQ ID NO: 179]	0.03 nM	1.88 nM
IVLSLD[dV]PIKLK([γGlu-C18 diacid])QILLKQARQK[Aib]QRAQAEKNKRILERV-NH2 (N-terminus assumed; SMILES CC[C@H](C)[C@H](N)C(=O)N[C@H](C(=O)N[C@@H](CC(C)C)C(=O)N[C@@H](CO)C(=O)N[C@@H](CC(C)C)C(=O)N[C@@H](CC(=O)O)C(=O)N[C@@H](C(=O)N1CCC[C@H]1C(=O)N[C@H](C(=O)N[C@@H](CCCCN)C(=O)N[C@@H](CC(C)C)C(=O)N[C@@H](CCCCNC(=O)CC[C@H](NC(=O)CCCCCCCCCCCCCCCCC(=O)O)C(=O)O)C(=O)N[C@@H](CCC(N)=O)C(=O)N[C@H](C(=O)N[C@@H](CC(C)C)C(=O)N[C@@H](CC(C)C)C(=O)N[C@@H](CCCCN)C(=O)N[C@@H](CCC(N)=O)C(=O)N[C@@H](C)C(=O)N[C@@H](CCCNC(=N)N)C(=O)N[C@@H](CCC(N)=O)C(=O)N[C@@H](CCCCN)C(=O)NC(C)(C)C(=O)N[C@@H](CCC(N)=O)C(=O)N[C@@H](CCCNC(=N)N)C(=O)N[C@@H](C)C(=O)N[C@@H](CCC(N)=O)C(=O)N[C@@H](C)C(=O)N[C@@H](CCC(=O)O)C(=O)N[C@@H](CCCCN)C(=O)N[C@@H](CC(N)=O)C(=O)N[C@@H](CCCCN)C(=O)N[C@@H](CCCNC(=N)N)C(=O)N[C@H](C(=O)N[C@@H](CC(C)C)C(=O)N[C@@H](CCC(=O)O)C(=O)N[C@@H](CCCNC(=N)N)C(=O)N[C@H](C(N)=O)C(C)C)[C@@H](C)CC)[C@@H](C)CC)[C@@H](C)CC)C(C)C)C(C)C) [SEQ ID NO: 180]	0.05 nM	1.74 nM
IVLSLD[dV]PIKLK([γGlu-C18 diacid])QILLKQERQKKQRQQAEKNKQILAQV-NH2 (N-terminus assumed; SMILES CC[C@H](C)[C@H](N)C(=O)N[C@H](C(=O)N[C@@H](CC(C)C)C(=O)N[C@@H](CO)C(=O)N[C@@H](CC(C)C)C(=O)N[C@@H](CC(=O)O)C(=O)N[C@@H](C(=O)N1CCC[C@H]1C(=O)N[C@H](C(=O)N[C@@H](CCCCN)C(=O)N[C@@H](CC(C)C)C(=O)N[C@@H](CCCCNC(=O)CC[C@H](NC(=O)CCCCCCCCCCCCCCCCC(=O)O)C(=O)O)C(=O)N[C@@H](CCC(N)=O)C(=O)N[C@H](C(=O)N[C@@H](CC(C)C)C(=O)N[C@@H](CC(C)C)C(=O)N[C@@H](CCCCN)C(=O)N[C@@H](CCC(N)=O)C(=O)N[C@@H](CCC(=O)O)C(=O)N[C@@H](CCCNC(=N)N)C(=O)N[C@@H](CCC(N)=O)C(=O)N[C@@H](CCCCN)C(=O)N[C@@H](CCCCN)C(=O)N[C@@H](CCC(N)=O)C(=O)N[C@@H](CCCNC(=N)N)C(=O)N[C@@H](CCC(N)=O)C(=O)N[C@@H](CCC(N)=O)C(=O)N[C@@H](C)C(=O)N[C@@H](CCC(=O)O)C(=O)N[C@@H](CCCCN)C(=O)N[C@@H](CC(N)=O)C(=O)N[C@@H](CCCCN)C(=O)N[C@@H](CCC(N)=O)C(=O)N[C@H](C(=O)N[C@@H](CC(C)C)C(=O)N[C@@H](C)C(=O)N[C@@H](CCC(N)=O)C(=O)N[C@H](C(N)=O)C(C)C)[C@@H](C)CC)[C@@H](C)CC)[C@@H](C)CC)C(C)C)C(C)C) [SEQ ID NO: 181]	1.18 nM	15.3 nM
IVLSLDVPIKLK([AEEA-AEEA-γGlu-C18 diacid])QILLKQERQK[Aib]QRQKAEKNKQILAQV-NH2 (N-terminus assumed; SMILES CC[C@H](C)[C@H](N)C(=O)N[C@H](C(=O)N[C@@H](CC(C)C)C(=O)N[C@@H](CO)C(=O)N[C@@H](CC(C)C)C(=O)N[C@@H](CC(=O)O)C(=O)N[C@H](C(=O)N1CCC[C@H]1C(=O)N[C@H](C(=O)N[C@@H](CCCCN)C(=O)N[C@@H](CC(C)C)C(=O)N[C@@H](CCCCNC(=O)COCCOCCNC(=O)COCCOCCNC(=O)CC[C@H](NC(=O)CCCCCCCCCCCCCCCCC(=O)O)C(=O)O)C(=O)N[C@@H](CCC(N)=O)C(=O)N[C@H](C(=O)N[C@@H](CC(C)C)C(=O)N[C@@H](CC(C)C)C(=O)N[C@@H](CCCCN)C(=O)N[C@@H](CCC(N)=O)C(=O)N[C@@H](CCC(=O)O)C(=O)N[C@@H](CCCNC(=N)N)C(=O)N[C@@H](CCC(N)=O)C(=O)N[C@@H](CCCCN)C(=O)NC(C)(C)C(=O)N[C@@H](CCC(N)=O)C(=O)N[C@@H](CCCNC(=N)N)C(=O)N[C@@H](CCC(N)=O)C(=O)N[C@@H](CCCCN)C(=O)N[C@@H](C)C(=O)N[C@@H](CCC(=O)O)C(=O)N[C@@H](CCCCN)C(=O)N[C@@H](CC(N)=O)C(=O)N[C@@H](CCCCN)C(=O)N[C@@H](CCC(N)=O)C(=O)N[C@H](C(=O)N[C@@H](CC(C)C)C(=O)N[C@@H](C)C(=O)N[C@@H](CCC(N)=O)C(=O)N[C@H](C(N)=O)C(C)C)[C@@H](C)CC)[C@@H](C)CC)[C@@H](C)CC)C(C)C)C(C)C) [SEQ ID NO: 22]	0.12 nM	–
IVLSLD[dV]PIKLK(C18 diacid)QILLKQERQK[Aib]QREQAEKNKQILAQV-NH2 (N-terminus assumed; SMILES CC[C@H](C)[C@H](N)C(=O)N[C@H](C(=O)N[C@@H](CC(C)C)C(=O)N[C@@H](CO)C(=O)N[C@@H](CC(C)C)C(=O)N[C@@H](CC(=O)O)C(=O)N[C@@H](C(=O)N1CCC[C@H]1C(=O)N[C@H](C(=O)N[C@@H](CCCCN)C(=O)N[C@@H](CC(C)C)C(=O)N[C@@H](CCCCNC(=O)CCCCCCCCCCCCCCCCC(=O)O)C(=O)N[C@@H](CCC(N)=O)C(=O)N[C@H](C(=O)N[C@@H](CC(C)C)C(=O)N[C@@H](CC(C)C)C(=O)N[C@@H](CCCCN)C(=O)N[C@@H](CCC(N)=O)C(=O)N[C@@H](CCC(=O)O)C(=O)N[C@@H](CCCNC(=N)N)C(=O)N[C@@H](CCC(N)=O)C(=O)N[C@@H](CCCCN)C(=O)NC(C)(C)C(=O)N[C@@H](CCC(N)=O)C(=O)N[C@@H](CCCNC(=N)N)C(=O)N[C@@H](CCC(=O)O)C(=O)N[C@@H](CCC(N)=O)C(=O)N[C@@H](C)C(=O)N[C@@H](CCC(=O)O)C(=O)N[C@@H](CCCCN)C(=O)N[C@@H](CC(N)=O)C(=O)N[C@@H](CCCCN)C(=O)N[C@@H](CCC(N)=O)C(=O)N[C@H](C(=O)N[C@@H](CC(C)C)C(=O)N[C@@H](C)C(=O)N[C@@H](CCC(N)=O)C(=O)N[C@H](C(N)=O)C(C)C)[C@@H](C)CC)[C@@H](C)CC)[C@@H](C)CC)C(C)C)C(C)C) [SEQ ID NO: 182]	0.03 nM	3.13 nM
